# According to patent US20190184015A1, “IRRADIATION TREATMENT OF NEUROLOGICAL SENSATIONS BY PHOTOABLATION” (European Molecular Biology Laboratory, priority 2016, published 2019):
# Entries after “also recorded” stand apart in the source; their conditions may differ.
# T1: IL31 Receptor A (IL31RA) (Mus musculus, UniProt Q8K5B1)
# T1 construct: from tissue; host or cells: mouse back skin (nape of the neck), in vivo
# T1 sequence (Q8K5B1 19-716): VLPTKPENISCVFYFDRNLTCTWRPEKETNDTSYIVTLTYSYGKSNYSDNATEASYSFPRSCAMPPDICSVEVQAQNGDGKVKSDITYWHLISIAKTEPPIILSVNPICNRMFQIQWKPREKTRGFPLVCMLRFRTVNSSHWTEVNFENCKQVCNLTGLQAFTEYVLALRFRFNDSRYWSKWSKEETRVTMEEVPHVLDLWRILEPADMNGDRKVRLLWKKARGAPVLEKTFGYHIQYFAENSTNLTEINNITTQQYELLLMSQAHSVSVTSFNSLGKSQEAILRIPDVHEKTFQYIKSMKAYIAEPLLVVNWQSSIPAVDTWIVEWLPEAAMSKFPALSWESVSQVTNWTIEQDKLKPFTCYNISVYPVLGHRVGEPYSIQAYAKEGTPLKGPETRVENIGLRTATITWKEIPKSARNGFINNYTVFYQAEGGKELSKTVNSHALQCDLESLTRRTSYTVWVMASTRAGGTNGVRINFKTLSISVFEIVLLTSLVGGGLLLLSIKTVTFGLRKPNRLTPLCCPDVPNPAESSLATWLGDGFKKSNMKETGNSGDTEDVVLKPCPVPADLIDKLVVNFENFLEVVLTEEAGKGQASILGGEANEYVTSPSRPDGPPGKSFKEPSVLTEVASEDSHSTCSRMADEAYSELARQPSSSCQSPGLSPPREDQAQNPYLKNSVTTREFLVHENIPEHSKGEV
# T1 sequence (O70458 24-971 partner): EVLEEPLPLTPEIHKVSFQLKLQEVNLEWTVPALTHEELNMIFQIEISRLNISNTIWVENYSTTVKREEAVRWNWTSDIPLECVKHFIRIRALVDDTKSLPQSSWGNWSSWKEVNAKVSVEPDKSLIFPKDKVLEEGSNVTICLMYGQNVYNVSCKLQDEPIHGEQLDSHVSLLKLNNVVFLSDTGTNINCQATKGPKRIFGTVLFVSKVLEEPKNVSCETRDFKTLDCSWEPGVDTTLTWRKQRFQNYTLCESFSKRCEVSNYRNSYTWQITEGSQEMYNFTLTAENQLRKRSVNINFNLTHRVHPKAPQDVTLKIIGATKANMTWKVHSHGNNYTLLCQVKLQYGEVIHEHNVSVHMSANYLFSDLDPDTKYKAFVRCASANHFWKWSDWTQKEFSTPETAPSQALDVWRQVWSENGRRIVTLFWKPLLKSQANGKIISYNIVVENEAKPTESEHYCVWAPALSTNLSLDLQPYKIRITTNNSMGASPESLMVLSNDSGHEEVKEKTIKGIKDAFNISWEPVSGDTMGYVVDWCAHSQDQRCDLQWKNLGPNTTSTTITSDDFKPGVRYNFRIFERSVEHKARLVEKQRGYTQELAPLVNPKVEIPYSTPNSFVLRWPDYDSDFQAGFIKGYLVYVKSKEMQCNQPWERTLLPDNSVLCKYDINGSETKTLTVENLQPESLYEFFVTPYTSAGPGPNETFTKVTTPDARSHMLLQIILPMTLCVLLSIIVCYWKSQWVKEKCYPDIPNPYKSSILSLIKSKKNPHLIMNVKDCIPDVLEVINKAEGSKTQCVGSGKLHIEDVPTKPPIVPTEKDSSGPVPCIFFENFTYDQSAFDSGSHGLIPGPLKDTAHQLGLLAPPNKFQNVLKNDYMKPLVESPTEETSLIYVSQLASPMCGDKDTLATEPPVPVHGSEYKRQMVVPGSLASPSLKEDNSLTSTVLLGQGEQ
# B1: IL31^SNAP-Surface549: IL31^SNAP labelled in vitro with BG-Surface549 (conjugate)
# chain: TCSLSFGAPISKEDLRTTIDLLKQESQDLYNNYSIKQASGMSADESIQLPCFSLDREALTNISVIIAHLEKVKVLSENTVDTSWVIRWLTNISCFNPLNLNISVPGNTDESYDCKVFVLTVLKQFSNCMAELQAKDNTTC
# modifications: left off: small tags and cut ends
# B2: BDNF^SNAP-IR700: BDNF^SNAP conjugated in vitro to benzylguanine modified IRDye®700 DX phthalocyanine (conjugate, UniProt P23560 19-247, looked up)
# Neurotrophic factor BDNF …: APMKEANIRGQGGLAYPGVRTHGTLESVNGPKAGSRGLTSLADTFEHVIEELLDEDQKVRPNEENNKDADLYTSRVMLSSQVPLEPPLLFLLEEYKNYLDAANMSMRVRRHSDPARRGELSVCDSISEWVTAADKKTAVDMSGGTVTVLEKVPVSKGQLKQYFYETKCNPMGYTKEGCRGIDKRHWNSQCRTTQSYVRALTMDSKKRIGWRFIRIDTSCVCTLTIKRGR
# modifications: C-terminal SNAP tag; IRDye700DX conjugate
# notes: BDNF^SNAP conjugated in vitro to benzylguanine modified IRDye®700 DX phthalocyanine
# Columns and labels:
# [1] = biological target: native TrkB receptors in DRG neurons (mouse) (mouse) (UniProt P15209); assay: Qdot 655 conjugated ligand on dissociated DRG of TrkBCreERT2::Rosa26RFP mice, counting of labelled cells
# IL31 Receptor A (IL31RA) = biological target: T1, IL31 Receptor A (IL31RA); assay: In vivo skin labelling after intradermal injection; details: wildtype mice; intradermal injection into back skin
# From the text: The inventors produced recombinant IL31 with a C-terminal fusion of SNAP (IL31^SNAP) in E. Coli. […] To determine whether IL31^SNAP was functional the inventors first performed binding studies in primary keratinocyte cultures. IL31^SNAP was labelled in vitro with BG-Surface549 and applied to keratinocytes from wildtype or IL31 Receptor A (IL31RA) knockout mice (IL31RA^−/−). […] The inventors further examined IL31^SNAP labelling in vivo by injecting IL31^SNAP-Surface549 intradermally into the back skin of wild type and IL31RA^−/− mice. […] Finally, the inventors determined whether IL31^SNAP was active by quantifying scratching behavior in mice upon intradermal injection. […] Thus the IL31^SNAP retains the functional properties of native IL31.
# For skin labelling, intradermal injection of 5 μM IL31^SNAP coupled with 5 μM BG549surf was performed in the nape of the neck. After […] (30 min) skin was collected, fix in PFA 4% overnight, OCT-embedded and cryo-sectioned (25 μm).
# TrkB+ neurons [2] = assay: Paclitaxel model of chemotherapy induced neuropathic pain; assay type: in vivo, mouse
# Procedure: (§1) The inventors next sought to assess the therapeutic potential of this approach by investigating the effects of BDNF^SNAP-IR700 mediated photoablation in wildtype mice with neuropathic pain. Upon establishment of robust mechanical allodynia three days after SNI, a range of concentrations of BDNF^SNAP-IR700 was injected into the ipsilateral paw of injured mice and the skin illuminated with different light intensities. […] It was examined whether such pronounced effects were also evident in other types of neuropathic pain. […] To determine the selectivity of this approach, the inventors further assessed the effects of BDNF^SNAP-IR700 mediated photoablation on behavioral responses under basal conditions. No deficits in sensitivity to cold, heat, or pinprick upon treatment were observed (FIG. 8f to h). Responses to cotton swab were also unaffected by photoablation (FIG. 3i), perhaps because the skin area that is stimulated in this test extends beyond the zone of illumination.
# TrkB+ neurons [3] = assay: Spared Nerve Injury (SNI) model, photoablation in the paw; assay type: in vivo, mouse
# From the text: Next neuropathic pain was induced in mice using the Spared Nerve Injury (SNI) model. Control mice developed a profound mechanical hypersensitivity in the sural nerve territory of the paw to both von Frey filaments and dynamic brush stimuli (FIGS. 6D and E). […] The inventors performed further experiments in TrkBCreERT2::Rosa26ChR2 mice to optogenetically activate these neurons. Three days after injury it was observed that selective stimulation of TrkB neurons with light evoked behavior indicative of pain. This was evident as a prolonged paw withdrawal from the stimulation, lifting of the paw and licking of the illuminated area (FIG. 6F) that continued for several minutes after light application. Such behavior persisted throughout the 2 weeks observation period and was never observed in control mice (FIG. 6F).
# as §1
# TrkB positive afferents = assay: Innervation of skin and DRG neuron counts after photoablation; assay type: in vivo, mouse
# From the text: Prior to photoablation, TrkB positive lanceolate endings were detected around hair follicles (FIG. 9a) and innervating Meissner corpuscles in the plantar surface of the paw. […] It was further investigated whether loss of TrkB^CreERT2 neurons was also evident at the level of the cell soma by analyzing the number of TrkB^CreERT2 positive neurons in the DRG.
# TrkB+ neurons [4] = assay: Streptozotocin model of painful diabetic neuropathy; assay type: in vivo, mouse
# Procedure: as §1
# TrkB sensory fibers = assay: Behavioral sensitivity after photoablation in the sciatic nerve; assay type: in vivo, mouse
# From the text: It was further investigated whether optogenetically evoked pain behavior in SNI mice is dependent upon CD34 + cells or TrkB+ fibers in the skin.
# skin cell types = details: mouse, in vivo
# [5] = system: baseline sensory behavior; assay: Behavioral responses under basal conditions after photoablation in the paw; assay type: in vivo, mouse
# Procedure: as §1
# [6] = system: HEK293T cells expressing TrkB/p75; assay: BDNF^SNAP-IR700 photoablation of HEK293T cells (propidium iodide); assay type: cell-based
# From the text: In initial experiments BDNF^SNAP-IR700 was applied to HEK293T cells expressing TrkB/p75 and cell death assayed following near infrared illumination.
# [7] = SNI mice, injection into ipsilateral paw and illumination
# [8] = injection into sciatic nerve, nerve illuminated
# Sequence of native TrkB receptors in DRG neurons (mouse) (mouse) (P15209 32-821): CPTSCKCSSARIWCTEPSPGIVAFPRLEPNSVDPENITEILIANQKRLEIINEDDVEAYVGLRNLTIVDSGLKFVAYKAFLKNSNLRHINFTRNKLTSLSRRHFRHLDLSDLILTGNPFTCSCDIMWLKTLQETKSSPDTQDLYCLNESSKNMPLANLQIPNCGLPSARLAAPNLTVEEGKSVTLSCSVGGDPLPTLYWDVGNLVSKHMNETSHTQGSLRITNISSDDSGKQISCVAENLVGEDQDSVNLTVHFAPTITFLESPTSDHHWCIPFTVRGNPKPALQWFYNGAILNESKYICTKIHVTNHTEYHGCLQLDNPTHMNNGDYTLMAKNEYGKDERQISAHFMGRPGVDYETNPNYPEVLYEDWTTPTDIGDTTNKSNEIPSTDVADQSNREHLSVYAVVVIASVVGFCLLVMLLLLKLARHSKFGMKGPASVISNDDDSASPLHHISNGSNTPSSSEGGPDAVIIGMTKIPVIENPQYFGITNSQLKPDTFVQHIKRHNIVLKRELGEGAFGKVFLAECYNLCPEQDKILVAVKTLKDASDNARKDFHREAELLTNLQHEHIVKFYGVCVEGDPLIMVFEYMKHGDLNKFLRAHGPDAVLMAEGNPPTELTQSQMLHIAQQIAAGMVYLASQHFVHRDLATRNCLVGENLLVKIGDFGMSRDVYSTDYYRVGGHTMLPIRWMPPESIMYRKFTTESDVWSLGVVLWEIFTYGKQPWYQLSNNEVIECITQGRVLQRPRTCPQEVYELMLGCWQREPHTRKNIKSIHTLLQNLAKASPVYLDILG
molecule,measurement,setting,value
BDNF^SNAP (ligand),overlap between BDNF^SNAP and TrkBCreERT2 positive cells,[1],> 95%
B1,fluorescent signal in cells in skin sections,IL31 Receptor A (IL31RA),fluorescent signal was observed
B2,return to injury levels,TrkB+ neurons [2],≤ 20 days
same,time of peak reversal,TrkB+ neurons [2],around 10 days post treatment
same,mechanical hypersensitivity,TrkB+ neurons [2]; 5 μM at 200 J/cm^2,marked reversal of mechanical hypersensitivity; also recorded: reverses mechanical allodynia
same,cotton swab evoked allodynia,TrkB+ neurons [3]; [7],concentration and illumination dependent rescue; also recorded: reversed by photoablation
same,dynamic brush evoked allodynia,TrkB+ neurons [3]; [7],concentration and illumination dependent rescue; also recorded: dose dependent reversal of mechanical hypersensitivity
same,von Frey withdrawal thresholds,TrkB+ neurons [3]; [7],concentration and illumination dependent rescue; also recorded: dose dependent reversal of mechanical hypersensitivity
same,persistence of rescue,TrkB+ neurons [3]; after a single treatment regime,more than 3 weeks
same,innervation of hairy and glabrous skin,TrkB positive afferents; 7 days after photoablation (13 days post-SNI),"selective loss of TrkB fibers but persistent innervation by PGP9.5 fibers; also recorded: Substantial loss of TrkB^CreERT2 positive afferents (red), but persistence of other fibers"
same,proportion of TrkB neurons in the DRG,TrkB positive afferents; 10 days after photoablation,No differences in the proportion of TrkB neurons
same,innervation of skin by TrkB positive fibers,TrkB positive afferents; 24 days post-photoablation,TrkB positive fibers were again seen innervating their appropriate end organs; also recorded: Reinnervation of skin by TrkB^CreERT2 afferents
same,return to injury levels,TrkB+ neurons [4],≤ 20 days
same,time of peak reversal,TrkB+ neurons [4],around 10 days post treatment
same,mechanical hypersensitivity,TrkB+ neurons [4]; 5 μM at 200 J/cm^2,marked reversal of mechanical hypersensitivity; also recorded: reverses mechanical allodynia
same,light driven nocifensive behavior,"TrkB sensory fibers; TrkB^CreERT2::Rosa26^ChR2 mice with SNI, sciatic nerve photoablation",significant reduction in light driven nocifensive behavior; also recorded: reduced by nerve photoablation
same,behavioral response to cooling (acetone drop test),"TrkB sensory fibers; injection into sciatic nerve at mid-thigh level, nerve illuminated",normal; also recorded: not altered by nerve photoablation
same,behavioral response to heating (radiant heat test),TrkB sensory fibers; [8],normal; also recorded: not altered by nerve photoablation
same,behavioral response to pinprick,TrkB sensory fibers; [8],normal; also recorded: not altered by nerve photoablation
same,sensitivity to cotton swab,TrkB sensory fibers; [8],reduced by nerve photoablation
same,number of CD34 positive cells in the skin,skin cell types,significantly reduced the number of CD34 positive cells
same,"numbers of Merkel cells, keratinocytes, dendritic and dermal antigen presenting cells in the skin",skin cell types,did not alter their numbers
same,responses to cotton swab,[5],unaffected; also recorded: does not affect baseline sensory behavior responses
same,sensitivity to cold (acetone drop test),[5],No deficits; also recorded: does not affect baseline sensory behavior responses
same,sensitivity to heat (hot plate test),[5],No deficits; also recorded: does not affect baseline sensory behavior responses
same,sensitivity to pinprick,[5],No deficits; also recorded: does not affect baseline sensory behavior responses
same,cell death after near infrared illumination,"[6]; HEK293T cells expressing TrkB/p75, 24 hours after brief illumination",substantial cell death
same,cell death after near infrared illumination,[6]; mock transfected HEK293T cells,not evident
